These results are taken from paper doi:10.1101/2024.09.19.614015 (bioRxiv, 2024).

A word on the Kd: it is the constant that tells how readily two partners part at equilibrium. Low values mean a tighter complex, high ones a looser complex. Broadly, the stoichiometry N is the number of molecules, sites or subunits per partner or assembly.

Data set [1] addresses Staphylococcus aureus O-acetyl-L-serine sulfhydrylase (CysK) (S. aureus) (UniProt P63871). The data set can be described thus: SPR. In general terms: In SPR one partner is held on a chip, and binding of the other changes the refractive index at the surface.
The data set “crystal structure” concerns the molecule itself. Nature of the data set: crystal structure.

B1: CymR 4 (peptide)
peptide: MFYI
The molecule B1 yielded a dissociation constant Kd in data set [1] of 4.1 µM.

B2: Staphylococcus aureus O-acetyl-L-serine sulfhydrylase (CysK) (enzyme, S. aureus, UniProt P63871 1-310, looked up)
chain: MAQKPVDNITQIIGGTPVVKLRNVVDDNAADVYVKLEYQNPGGSVKDRIALAMIEKAEREGKIKPGDTIVEPTSGNTGIGLAFVCAAKGYKAVFTMPETMSQERRNLLKAYGAELVLTPGSEAMKGAIKKAKELKEEHGYFEPQQFENPANPEVHELTTGPELLQQFEGKTIDAFLAGVGTGGTLSGVGKVLKKEYPNIEIVAIEPEASPVLSGGEPGPHKLQGLGAGFIPGTLNTEIYDSIIKVGNDTAMEMSRRVAKEEGILAGISSGAAIYAAIQKAKELGKGKTVVTVLPSNGERYLSTPLYSFDD
modifications: PLP cofactor in a Schiff base linkage with the ε-amino group of K46
With B2, the “stoichiometry N” value in “crystal structure” worked out at 2.
